Test results from the nanobody polyreactivity screen of Harvey et al. (2022).

Test: yeast display, Sf9 membrane polyspecificity reagent, FACS + sequencing; frameworks hold sequencing errors
How it was run: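 In a synthetic yeast display library (Saccharomyces cerevisiae BJ5465), nanobody expression was induced with galactose for 36–48 hours. FACS gates were set low and high (top ~1%) using anti-HA fluorescence for expression and streptavidin fluorescence for binding of the Sf9 membrane reagent. Each polyreactivity label is drawn from the gate of origin.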

Sequence | polyreactivity (PSR sort gate)
QVQLVESGGGLVQAGGSLRLSCAASGIIFDDYAMGWYRQAPGKERELVAAISVSGGSTYYADSVKGRFTISRDNAKNTVYLQMNSLKPEDTAVYYCAARLIVGRFLRYDYWGQGTQVSVSS | high polyreactivity
QVQLVESGGGLVQAGGSLRLSCAASGIIFDEYAMGWYRQAPGKERELVAAISSRGTNTYYADSVKGRFTISRDHAKNTVYLQMNSLKPEDTAVYYCAARRPPVTRHFGYWGQGTQVTVSS | high polyreactivity
QVQLVESGGGLVQAGGSLRLSCAASGIIFDGNAMGWYRQAPGKERELVASITSDSSTNYADSVKGRFTISRDNAKNTVYLQMNSLKPEDTAVYYCAADHWIAPRRDYWGQGTQVTVSS | low polyreactivity
QVQLVESGGGLVQAGGSLRLSCAASGIIFDLNAMGWYRQAPGKERELVAAITSGGSTYYADSVKGRFTISRDNAKNTVYLQMNSLKPEDTAVYYCAADYQAGDKLYDYWGQGTQVTLSS | low polyreactivity
QVQLVESGGGLVQAGGSLRLSCAASGIIFDNYAMGWYRQAPGKERELVAAISPGGSTYYADSVKGRFTISRDNAKNTVYLQMNSLKPEDTAVYYCNARKYTWYSSRFIRFDYWGQGTQVTVSS | high polyreactivity
QVQLVESGGGLVQAGGSLRLSCAASGIIFDRYAKGWYRQAPGKERELVAAITYGGGSTYYADSVKGRFTISRDNAKNTVYLQMNSLKPEDTSVYYCAAVPRSGMYYWGQGTQVTVSS | high polyreactivity
QVQLVESGGGLVQAGGSLRLSCAASGIIFDRYAMGWYRQAPGKEREFVAAISRRGGSTYYADSVKGRFTISRDNAKNTVYLQMNSLKPEDTAVYYCAKEIRYYSSVSESDYWGQGTQVTVSS | high polyreactivity
QVQLVESGGGLVQAGGSLRLSCAASGIIFDRYTMGWYRQAPGKERELVAAIDDSDDSTYYADSVKGRFTISRDNAKNTVYLQMNSLKPEDTAVYYCAAEYTWFEYIDFGYWGQGTQVTVSS | high polyreactivity
QVQLVESGGGLVQAGGSLRLSCAASGIIFDSYAMGWYRPAPGKERELVAAITSDSGRTYYADSVKGRFTISRDNAKNTVYLQMNSLKPEDTAVYYCAKRWDCPYDYWGQGTQVTVSS | low polyreactivity
QVQLVESGGGLVQAGGSLRLSCAASGIIFDWYAMGWYRQAPGKERELVAAISDSGDTTYYADSVKGRFTISRDNAKNTVYLQMNSLKPEDTAVYYCAAVSYQYYDLDYWGQGTQVTVSS | high polyreactivity
QVQLVESGGGLVQAGGSLRLSCAASGIIFDYNAMGWYRPAPGKERELVAAITSTDNTNYADSVKGRFTISRDNAKNTVYLQMNCLKPEDTAVYYCNTDYWLSVVYAMDYWGQGTQVTVSS | low polyreactivity
QVQLVESGGGLVQAGGSLRLSCAASGIIFDYYAMGWYRQAPGKERELVAAINRNGGTTYYADSVKGRFTISRDNAKNSVYLQMNSLKPEDTAVYYCAAVDFGWITYYYWGQGTQVTVAS | high polyreactivity
QVQLVESGGGLVQAGGSLRLSCAASGIIFDYYAMGWYRQAPGKERELVAAISKRGGSTYYADSVKGRFTISRDNAKNTVYLQMNSLKPEDTAVYYCAAEYSKRWWYYYWGQGTQVTVSS | high polyreactivity
QVQLVESGGGLVQAGGSLRLSCAASGIIFDYYAMGWYRQAPGKERELVASNSWSGGGTYYADSVKGRFTISRDNAKNTVYFQMNRLNPEDTAVYYCAADGSTVNAPRWSDPYDYWGQGTQVTVSS | low polyreactivity
QVQLVESGGGLVQAGGSLRLSCAASGIIFDYYTMGWYRQAPGKARELVAGITRSGGRTYYADSVKGRFTISRDNAKNTVYLQMNSLKPEETAGYYCAAVQRRTYVKYESWGQGTQVTVSS | high polyreactivity
QVQLVESGGGLVQAGGSLRLSCAASGIIFERNAMGWYRQAPGKERELVAAISSNGGSTYYADSVKGRFTISRDNAKNTVYLQMNSLKPEDTAVYYCAAQGVYAGSRYYYWGQGTQVTVSS | high polyreactivity
QVQLVESGGGLVQAGGSLRLSCAASGIIFFFYAMGWYRQEPGKERELVAAISDEGVSTDYADSVKGRFTISRDNAKNTVYLQMNSLKPEDTAVYYCAAKTERVYPWFSFGYWGQGTQVTVSS | low polyreactivity
QVQLVESGGGLVQAGGSLRLSCAASGIIFFRYAMGWYRQAPGKERELVAGISGSGGSTYYADSVKGRFTISRDNAKNTVYLQMNSLKPEDTAVYYCAKQWKSNIYYQGGYWGQGTQVTVSS | high polyreactivity
QVQLVESGGGLVQAGGSLRLSCAASGIIFFSNAMGWYRQAPAQEMELVAAITGGSSTNYADSVKGRFTISRDNAKNTVYLQMNSLKPEDTAVYYCNAPTKSTPRSEPIPYYEFDYWGQGTQVTVSS | low polyreactivity
QVQLVESGGGLVQAGGSLRLSCAASGIIFFYNAMGWYRQAPGKERELVAAISSDGSTYYADSVKGRFTISRDNAKNTVYLQMNSLKPEDTAVYYCNAGSLRYGPYNHWGQGTQVTVSS | low polyreactivity
QVQLVESGGGLVQAGGSLRLSCAASGIIFGDNAMGWYRQAPGKERELVAAITIGGTSTYYADSVKGRFTISRDNAKNTVYLQMNSLKPEDTAVYYCAKTILYDCDYWGQGTQVTVSS | low polyreactivity
QVQLVESGGGLVQAGGSLRLSCAASGIIFGENAMGWYRQAPGKERELVAAINSVGSTYYADSVKGRFTISRDNAKNTVYLQMNSLKPEDTAVYYCNARLAKVRVKDDYWGQGTQVTVSS | low polyreactivity
QVQLVESGGGLVQAGGSLRLSCAASGIIFGENAMGWYRQAPGKERELVAAITESGGSTYYADSVKGRFTISRDNAKNTVYLQMNSLKPEDTAVYYCNALPFRYGKRRGYWGQGTQVTVSS | low polyreactivity
QVQLVESGGGLVQAGGSLRLSCAASGIIFGGNVMGRYRQAPGKVRELVAAITWSGGTTYYADSVKGRFTISRDNAKNTVYLQMNSLKPEDTAVYYCAADRVYLDYVAGTYDYWGQGTQVTVSS | low polyreactivity
QVQLVESGGGLVQAGGSLRLSCAASGIIFGKYAMGWYRQAPGKERELVASITVDGGTTYYADSVKGRFTISRDNAKNTVYLQMNSLKPEDTAVYYCATGVFAEQWFDYWPYDYWGQGTQVTVSS | high polyreactivity
QVQLVESGGGLVQAGGSLRLSCAASGIIFGKYVMGWYRQAPGKEREFVAAISVRSGSTYYADSVKGRFTISRDNAKNTVYLQMNSLKPEDTALYYCAAREPVPRHLDYYYWGQGTQVSVSS | high polyreactivity
QVQLVESGGGLVQAGGSLRLSCAASGIIFGNNAMGWYRQAPGKERELVAAIRWSTGTTYYADSVKGRFTISRDNAKNTVYLQMNSLKPEDTAVYYCAARLRREYGYWGQGTQVTVSS | high polyreactivity
QVQLVESGGGLVQAGGSLRLSCAASGIIFGPYAMGWYRQAPGKERELVAAISSSGGNTYYADSVKGRFTISRDNAKNTVYLQMNSLKPEYTAVYYCAAEGYWGQPFDYDGALEYWGQGTQVTVSS | high polyreactivity
QVQLVESGGGLVQAGGSLRLSCAASGIIFGPYAMGWYRQAPGKEWELVAAITWSGGGTYYADSVKGRFTISRDNAKNTVYLQMNSLKPEDTAVYYCAKYFPAGYYYWGQGTQVTVSS | low polyreactivity
QVQLVESGGGLVQAGGSLRLSCAASGIIFGRYAMGWYRQAPGKERELVAAISTSGGSTYYADSVKGRFTISRDNAKNTVYLQMNSLKPEDTAVYYCNAVPVVRAGHGYDSWGQGTQVTVSS | high polyreactivity
